Test results: ChEMBL document CHEMBL1148343, “Fragment-based drug discovery” (J Med Chem, 2004)

Substrate: Nc1nc(=O)c2c([nH]1)NCC1CN(c3ccc(C(=O)N[C@@H](CCC(=O)O)C(=O)O)cc3)CN21
Test: Michaelis-Menten constant (Km) against thymidylate synthase

B1: Thymidylate synthase (Lactobacillus casei), P00469 (protein)
chain: MLEQPYLDLAKKVLDEGHFKPDRTHTGTYSIFGHQMRFDLSKGFPLLTTKKVPFGLIKSELLWFLHGDTNIRFLLQHRNHIWDEWAFEKWVKSDEYHGPDMTDFGHRSQKDPEFAAVYHEEMAKFDDRVLHDDAFAAKYGDLGLVYGSQWRAWHTSKGDTIDQLGDVIEQIKTHPYSRRLIVSAWNPEDVPTMALPPCHTLYQFYVNDGKLSLQLYQRSADIFLGVPFNIASYALLTHLVAHECGLEVGEFIHTFGDAHLYVNHLDQIKEQLSRTPRPAPTLQLNPDKHDIFDFDMKDIKLLNYDPYPAIKAPVAV
Question: B1 was tested. Which Km did it give?
Answer: The Km was 14 µM.
